Laboratory results published in US20230406885A1, “CYCLIC PEPTIDES FOR TRAPPING INTERLEUKIN-1 BETA” (MERCK SHARP & DOHME LLC, priority 2022, published 2023).
*1 amine or outer side, *2 acyl side, *3 side chain or, on linkers, in order; H or OH if unused. [ ]: non-standard residue; d: D form. TyrEtNAc = L-tyrosine O-ethyl acetamide, (S)-3-(4-(2-acetamidoethoxy)phenyl)-2-aminopropanoic acid, CC(=O)NCCOc1ccc(C[C@H](N[*:1])C(=O)[*:2])cc1; 3Pal4Ph4CO2H = (S)-4-(5-(2-amino-2-carboxyethyl)pyridin-2-yl)benzoic acid, O=C([C@H](Cc1ccc(-c2ccc(C(=O)[*:3])cc2)nc1)N[*:1])[*:2]; Pro(trans-4-NH2) = O=C([C@@H]1C[C@@H](N[*:3])CN1[*:1])[*:2]; Bip(4'-COOH) = N[C@@H](Cc1ccc(-c2ccc(C(=O)O)cc2)cc1)C(=O)O; 1Nal(3S-Me) = C[C@@H](c1cccc2ccccc12)[C@H](N)C(=O)O; hPhe(4-CF3) = N[C@@H](CCc1ccc(C(F)(F)F)cc1)C(=O)O; Ala(pyrimidin-5-yl) = N[C@@H](Cc1cncnc1)C(=O)O; Phe(4-COOH) = N[C@@H](Cc1ccc(C(=O)O)cc1)C(=O)O; Trp(7-aza) = N[C@@H](Cc1c[nH]c2ncccc12)C(=O)O; h3Pal(5-CN) = N#Cc1cncc(CC[C@H](N)C(=O)O)c1; hTyr = N[C@@H](CCc1ccc(O)cc1)C(=O)O; dDab = NCC[C@@H](N)C(=O)O; dNMeA = CN[C@H](C)C(=O)O; Dap = NC[C@H](N)C(=O)O; Aib = CC(C)(N)C(=O)O

B1: SEQ ID NO: 113 (peptide)
peptide: cyclo([TyrEtNAc]W[Phe(4-COOH)]G[Pro(trans-4-NH2)][1Nal(3S-Me)]D[dNMeA]G[Bip(4'-COOH)][Ala(pyrimidin-5-yl)]G[dDab][h3Pal(5-CN)])
SMILES: CC(=O)NCCOc1ccc(C[C@@H]2NC(=O)[C@H](CCc3cncc(C#N)c3)NC(=O)[C@@H](CCN)NC(=O)CNC(=O)[C@H](Cc3cncnc3)NC(=O)[C@H](Cc3ccc(-c4ccc(C(=O)O)cc4)cc3)NC(=O)CNC(=O)[C@@H](C)N(C)C(=O)[C@H](CC(=O)O)NC(=O)[C@H]([C@@H](C)c3cccc4ccccc34)NC(=O)[C@@H]3C[C@@H](N)CN3C(=O)CNC(=O)[C@H](Cc3ccc(C(=O)O)cc3)NC(=O)[C@H](Cc3c[nH]c4ccccc34)NC2=O)cc1
B2: SEQ ID NO: 110 (peptide)
peptide: cyclo([TyrEtNAc]W[Phe(4-COOH)]G[Pro(trans-4-NH2)][1Nal(3S-Me)]D[dNMeA]G[Bip(4'-COOH)]KL[dA][hTyr])
SMILES: CC(=O)NCCOc1ccc(C[C@@H]2NC(=O)[C@H](CCc3ccc(O)cc3)NC(=O)[C@@H](C)NC(=O)[C@H](CC(C)C)NC(=O)[C@H](CCCCN)NC(=O)[C@H](Cc3ccc(-c4ccc(C(=O)O)cc4)cc3)NC(=O)CNC(=O)[C@@H](C)N(C)C(=O)[C@H](CC(=O)O)NC(=O)[C@H]([C@@H](C)c3cccc4ccccc34)NC(=O)[C@@H]3C[C@@H](N)CN3C(=O)CNC(=O)[C@H](Cc3ccc(C(=O)O)cc3)NC(=O)[C@H](Cc3c[nH]c4ccccc34)NC2=O)cc1
B3: SEQ ID NO: 109 (peptide)
peptide: cyclo([TyrEtNAc]W[Phe(4-COOH)]G[Pro(trans-4-NH2)][1Nal(3S-Me)]D[dNMeA]G[Bip(4'-COOH)]KG[dNMeA][hTyr])
SMILES: CC(=O)NCCOc1ccc(C[C@@H]2NC(=O)[C@H](CCc3ccc(O)cc3)NC(=O)[C@@H](C)N(C)C(=O)CNC(=O)[C@H](CCCCN)NC(=O)[C@H](Cc3ccc(-c4ccc(C(=O)O)cc4)cc3)NC(=O)CNC(=O)[C@@H](C)N(C)C(=O)[C@H](CC(=O)O)NC(=O)[C@H]([C@@H](C)c3cccc4ccccc34)NC(=O)[C@@H]3C[C@@H](N)CN3C(=O)CNC(=O)[C@H](Cc3ccc(C(=O)O)cc3)NC(=O)[C@H](Cc3c[nH]c4ccccc34)NC2=O)cc1
B4: SEQ ID NO: 114 (peptide)
peptide: cyclo([TyrEtNAc]W[Phe(4-COOH)]G[Pro(trans-4-NH2)][1Nal(3S-Me)]D[dNMeA]G[Bip(4'-COOH)][Trp(7-aza)]G[dDab][h3Pal(5-CN)])
SMILES: CC(=O)NCCOc1ccc(C[C@@H]2NC(=O)[C@H](CCc3cncc(C#N)c3)NC(=O)[C@@H](CCN)NC(=O)CNC(=O)[C@H](Cc3c[nH]c4ncccc34)NC(=O)[C@H](Cc3ccc(-c4ccc(C(=O)O)cc4)cc3)NC(=O)CNC(=O)[C@@H](C)N(C)C(=O)[C@H](CC(=O)O)NC(=O)[C@H]([C@@H](C)c3cccc4ccccc34)NC(=O)[C@@H]3C[C@@H](N)CN3C(=O)CNC(=O)[C@H](Cc3ccc(C(=O)O)cc3)NC(=O)[C@H](Cc3c[nH]c4ccccc34)NC2=O)cc1
B5: SEQ ID NO: 107 (peptide)
peptide: cyclo([TyrEtNAc]W[Phe(4-COOH)]G[Pro(trans-4-NH2)][1Nal(3S-Me)]D[dNMeA]G[Bip(4'-COOH)]KG[Aib][hTyr])
SMILES: CC(=O)NCCOc1ccc(C[C@@H]2NC(=O)[C@H](CCc3ccc(O)cc3)NC(=O)C(C)(C)NC(=O)CNC(=O)[C@H](CCCCN)NC(=O)[C@H](Cc3ccc(-c4ccc(C(=O)O)cc4)cc3)NC(=O)CNC(=O)[C@@H](C)N(C)C(=O)[C@H](CC(=O)O)NC(=O)[C@H]([C@@H](C)c3cccc4ccccc34)NC(=O)[C@@H]3C[C@@H](N)CN3C(=O)CNC(=O)[C@H](Cc3ccc(C(=O)O)cc3)NC(=O)[C@H](Cc3c[nH]c4ccccc34)NC2=O)cc1
B6: SEQ ID NO: 112 (peptide)
peptide: cyclo([TyrEtNAc]W[Phe(4-COOH)]G[Pro(trans-4-NH2)][1Nal(3S-Me)]D[dNMeA]G[Bip(4'-COOH)]KS[dA][hTyr])
SMILES: CC(=O)NCCOc1ccc(C[C@@H]2NC(=O)[C@H](CCc3ccc(O)cc3)NC(=O)[C@@H](C)NC(=O)[C@H](CO)NC(=O)[C@H](CCCCN)NC(=O)[C@H](Cc3ccc(-c4ccc(C(=O)O)cc4)cc3)NC(=O)CNC(=O)[C@@H](C)N(C)C(=O)[C@H](CC(=O)O)NC(=O)[C@H]([C@@H](C)c3cccc4ccccc34)NC(=O)[C@@H]3C[C@@H](N)CN3C(=O)CNC(=O)[C@H](Cc3ccc(C(=O)O)cc3)NC(=O)[C@H](Cc3c[nH]c4ccccc34)NC2=O)cc1
B7: SEQ ID NO: 108 (peptide)
peptide: cyclo([TyrEtNAc]W[Phe(4-COOH)]G[Pro(trans-4-NH2)][1Nal(3S-Me)]D[dNMeA]G[Bip(4'-COOH)]KG[dA][hTyr])
SMILES: CC(=O)NCCOc1ccc(C[C@@H]2NC(=O)[C@H](CCc3ccc(O)cc3)NC(=O)[C@@H](C)NC(=O)CNC(=O)[C@H](CCCCN)NC(=O)[C@H](Cc3ccc(-c4ccc(C(=O)O)cc4)cc3)NC(=O)CNC(=O)[C@@H](C)N(C)C(=O)[C@H](CC(=O)O)NC(=O)[C@H]([C@@H](C)c3cccc4ccccc34)NC(=O)[C@@H]3C[C@@H](N)CN3C(=O)CNC(=O)[C@H](Cc3ccc(C(=O)O)cc3)NC(=O)[C@H](Cc3c[nH]c4ccccc34)NC2=O)cc1
B8: SEQ ID NO: 11 (peptide)
peptide: cyclo([3Pal4Ph4CO2H]W[Phe(4-COOH)]G[Pro(trans-4-NH2)][1Nal(3S-Me)]D[dNMeA]G[Bip(4'-COOH)]W[Dap][dA][hTyr])
SMILES: C[C@@H]1C(=O)NCC(=O)N[C@@H](Cc2ccc(-c3ccc(C(=O)O)cc3)cc2)C(=O)N[C@@H](Cc2c[nH]c3ccccc23)C(=O)N[C@@H](CN)C(=O)N[C@H](C)C(=O)N[C@@H](CCc2ccc(O)cc2)C(=O)N[C@@H](Cc2ccc(-c3ccc(C(=O)O)cc3)nc2)C(=O)N[C@@H](Cc2c[nH]c3ccccc23)C(=O)N[C@@H](Cc2ccc(C(=O)O)cc2)C(=O)NCC(=O)N2C[C@H](N)C[C@H]2C(=O)N[C@@H]([C@@H](C)c2cccc3ccccc23)C(=O)N[C@@H](CC(=O)O)C(=O)N1C
B9: SEQ ID NO: 111 (peptide)
peptide: cyclo([TyrEtNAc]W[Phe(4-COOH)]G[Pro(trans-4-NH2)][1Nal(3S-Me)]D[dNMeA]G[Bip(4'-COOH)]KS[dA][hPhe(4-CF3)])
SMILES: CC(=O)NCCOc1ccc(C[C@@H]2NC(=O)[C@H](CCc3ccc(C(F)(F)F)cc3)NC(=O)[C@@H](C)NC(=O)[C@H](CO)NC(=O)[C@H](CCCCN)NC(=O)[C@H](Cc3ccc(-c4ccc(C(=O)O)cc4)cc3)NC(=O)CNC(=O)[C@@H](C)N(C)C(=O)[C@H](CC(=O)O)NC(=O)[C@H]([C@@H](C)c3cccc4ccccc34)NC(=O)[C@@H]3C[C@@H](N)CN3C(=O)CNC(=O)[C@H](Cc3ccc(C(=O)O)cc3)NC(=O)[C@H](Cc3c[nH]c4ccccc34)NC2=O)cc1

These binders were tested against Recombinant human IL-1β (BioLegend 579404) (human, UniProt P01584 117-269) (assay: cell-based or functional assay).
B1 was tested, and the “MRC5 IC50” value was 0.0918 nM. In the case of B2, the “MRC5 IC50” value is reported as 0.196 nM. For B3, the “MRC5 IC50” value was 0.0775 nM. With B4 the “MRC5 IC50” value was 0.0233 nM. With B5 the “MRC5 IC50” value was 0.0582 nM. In the case of B6, the “MRC5 IC50” value is reported as 0.0617 nM. In the case of B7, the “MRC5 IC50” value is reported as 0.102 nM. B8 was tested, and the “MRC5 IC50” value was 0.0908 nM. With B9 the “MRC5 IC50” value was 0.133 nM.
